Results published in patent US20080044360A1 (COLLAGEN MEDICAL, published 2008).
Bridge positions count the residues as written; N and C are the ends. Square brackets hold non-standard residues; d marks the D form. Primed or numbered codes have the meaning given here. Side chains are listed from the residue outwards. Ends that are not written are not given here. * marks the point of attachment. Gd^D = GdDOTAGA (gadolinium DOTAGA chelate); Tyr(3-Cl) = N[C@@H](Cc1ccc(O)c(Cl)c1)C(=O)O; Bip = N[C@@H](Cc1ccc(-c2ccccc2)cc1)C(=O)O; Tyr(3-I) = N[C@@H](Cc1ccc(O)c(I)c1)C(=O)O; Phe(4-NH2) = Nc1ccc(C[C@H](N)C(=O)O)cc1; Gd^T(3) = GdDTPA attached via thiourea; Dmt = Cc1cc(O)cc(C)c1C[C@H](N)C(=O)O; 1,4 AMB(Gd^T) = not defined here; Gd^G = not defined here; Gd^T = not defined here; Gd^T″ = GdDTPA-thiourea; NH(CH2)6NH2 = NCCCCCCN*; AEEA = NCCOCCOCC(=O)O

Tests used:
[1] = target: T1, human collagen type I, acid soluble, extracted from placenta (Sigma C7774) (human, UniProt P02452 162-1218; P08123 80-1119); assay: dried collagen assay
T1 construct: tissue extract, gelled and dried in wells; also called dried human collagen; h-Collagen
T1 sequence (P02452 162-1218 limits assumed, chain 1 of 2): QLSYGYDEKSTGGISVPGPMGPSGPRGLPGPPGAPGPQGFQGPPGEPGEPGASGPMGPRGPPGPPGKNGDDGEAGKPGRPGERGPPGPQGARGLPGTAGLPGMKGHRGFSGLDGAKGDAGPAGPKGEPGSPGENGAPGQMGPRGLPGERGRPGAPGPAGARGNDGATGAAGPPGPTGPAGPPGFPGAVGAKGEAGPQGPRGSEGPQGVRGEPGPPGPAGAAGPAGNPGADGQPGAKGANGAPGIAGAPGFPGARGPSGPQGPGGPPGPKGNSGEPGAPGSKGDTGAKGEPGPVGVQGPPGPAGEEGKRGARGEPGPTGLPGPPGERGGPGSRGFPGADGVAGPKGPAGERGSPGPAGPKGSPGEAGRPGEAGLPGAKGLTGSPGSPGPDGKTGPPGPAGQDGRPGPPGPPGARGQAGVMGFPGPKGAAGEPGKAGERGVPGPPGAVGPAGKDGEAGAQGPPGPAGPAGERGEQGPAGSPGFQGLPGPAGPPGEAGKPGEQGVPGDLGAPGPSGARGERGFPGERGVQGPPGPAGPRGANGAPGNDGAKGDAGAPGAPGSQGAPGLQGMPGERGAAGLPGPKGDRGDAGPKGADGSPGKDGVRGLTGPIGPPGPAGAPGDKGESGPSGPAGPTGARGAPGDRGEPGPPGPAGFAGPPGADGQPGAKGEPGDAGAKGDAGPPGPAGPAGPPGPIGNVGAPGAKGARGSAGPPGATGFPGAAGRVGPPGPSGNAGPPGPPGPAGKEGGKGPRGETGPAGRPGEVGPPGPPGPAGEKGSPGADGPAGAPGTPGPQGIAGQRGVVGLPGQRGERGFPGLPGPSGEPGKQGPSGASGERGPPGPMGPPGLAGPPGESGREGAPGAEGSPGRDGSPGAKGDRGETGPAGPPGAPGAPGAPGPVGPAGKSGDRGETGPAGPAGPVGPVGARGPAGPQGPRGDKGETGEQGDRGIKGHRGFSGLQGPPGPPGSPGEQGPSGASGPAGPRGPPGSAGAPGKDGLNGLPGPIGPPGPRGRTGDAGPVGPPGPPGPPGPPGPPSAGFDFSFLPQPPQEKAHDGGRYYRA
T1 sequence (P08123 80-1119 limits assumed, chain 2 of 2): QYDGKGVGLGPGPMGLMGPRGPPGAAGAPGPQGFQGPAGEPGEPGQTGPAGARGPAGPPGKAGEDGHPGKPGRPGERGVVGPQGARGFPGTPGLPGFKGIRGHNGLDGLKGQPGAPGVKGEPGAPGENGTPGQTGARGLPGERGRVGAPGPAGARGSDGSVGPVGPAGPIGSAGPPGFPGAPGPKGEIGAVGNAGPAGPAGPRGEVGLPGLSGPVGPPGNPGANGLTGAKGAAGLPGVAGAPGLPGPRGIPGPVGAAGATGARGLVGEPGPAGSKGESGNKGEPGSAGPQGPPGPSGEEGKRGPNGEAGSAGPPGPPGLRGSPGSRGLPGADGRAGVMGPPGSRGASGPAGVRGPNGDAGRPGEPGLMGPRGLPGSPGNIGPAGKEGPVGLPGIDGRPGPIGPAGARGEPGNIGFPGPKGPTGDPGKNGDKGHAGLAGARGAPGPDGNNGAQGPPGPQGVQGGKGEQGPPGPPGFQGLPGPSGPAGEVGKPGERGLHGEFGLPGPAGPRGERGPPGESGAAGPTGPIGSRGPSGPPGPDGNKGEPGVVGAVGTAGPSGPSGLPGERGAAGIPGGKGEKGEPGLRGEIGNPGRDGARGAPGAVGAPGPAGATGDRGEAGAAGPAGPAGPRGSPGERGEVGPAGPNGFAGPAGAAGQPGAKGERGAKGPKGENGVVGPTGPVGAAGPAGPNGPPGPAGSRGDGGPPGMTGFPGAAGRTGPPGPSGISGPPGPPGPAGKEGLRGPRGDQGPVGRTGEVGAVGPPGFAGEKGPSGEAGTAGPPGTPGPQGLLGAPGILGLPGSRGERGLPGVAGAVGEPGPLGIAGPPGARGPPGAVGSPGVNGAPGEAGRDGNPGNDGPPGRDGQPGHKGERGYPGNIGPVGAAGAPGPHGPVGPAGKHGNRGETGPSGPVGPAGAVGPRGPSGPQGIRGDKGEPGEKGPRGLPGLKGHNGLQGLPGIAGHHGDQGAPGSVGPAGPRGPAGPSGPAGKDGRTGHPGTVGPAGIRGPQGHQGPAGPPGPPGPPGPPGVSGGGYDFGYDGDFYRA

[2] = target: T2, rat collagen, acid soluble, type I, rat tail (Upstate 08-115) (rat, UniProt P02454 152-1207; P02466 86-1125); assay: dried collagen assay
T2 construct: tissue extract, gelled and dried in wells; also called dried rat collagen
T2 sequence (P02454 152-1207, chain 1 of 2): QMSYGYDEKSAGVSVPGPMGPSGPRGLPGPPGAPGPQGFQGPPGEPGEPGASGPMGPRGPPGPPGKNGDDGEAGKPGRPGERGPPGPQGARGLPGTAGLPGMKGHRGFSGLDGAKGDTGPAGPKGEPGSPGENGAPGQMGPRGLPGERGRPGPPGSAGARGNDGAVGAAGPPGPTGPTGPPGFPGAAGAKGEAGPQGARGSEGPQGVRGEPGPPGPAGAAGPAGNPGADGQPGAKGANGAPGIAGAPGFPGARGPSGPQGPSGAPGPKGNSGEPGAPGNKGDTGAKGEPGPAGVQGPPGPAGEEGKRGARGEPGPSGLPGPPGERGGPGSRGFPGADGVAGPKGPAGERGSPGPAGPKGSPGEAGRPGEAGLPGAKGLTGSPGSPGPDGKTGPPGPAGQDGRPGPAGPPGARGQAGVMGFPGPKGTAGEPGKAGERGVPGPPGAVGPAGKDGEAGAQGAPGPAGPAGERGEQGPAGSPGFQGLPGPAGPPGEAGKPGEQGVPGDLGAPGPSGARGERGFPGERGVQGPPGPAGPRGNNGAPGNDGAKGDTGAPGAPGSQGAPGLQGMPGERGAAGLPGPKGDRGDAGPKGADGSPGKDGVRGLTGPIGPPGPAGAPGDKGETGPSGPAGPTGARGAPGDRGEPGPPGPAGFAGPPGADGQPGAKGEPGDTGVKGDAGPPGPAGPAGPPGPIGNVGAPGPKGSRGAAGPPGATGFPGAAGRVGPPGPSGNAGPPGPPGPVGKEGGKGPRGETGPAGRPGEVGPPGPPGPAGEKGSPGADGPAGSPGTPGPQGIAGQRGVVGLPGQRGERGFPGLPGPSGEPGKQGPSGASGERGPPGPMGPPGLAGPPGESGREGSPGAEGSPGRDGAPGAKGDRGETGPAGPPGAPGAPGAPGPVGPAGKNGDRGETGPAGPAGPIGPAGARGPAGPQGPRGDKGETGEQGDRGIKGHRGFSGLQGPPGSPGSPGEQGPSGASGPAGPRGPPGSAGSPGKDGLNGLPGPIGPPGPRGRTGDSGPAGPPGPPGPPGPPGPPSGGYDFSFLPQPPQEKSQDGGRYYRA
T2 sequence (P02466 86-1125, chain 2 of 2): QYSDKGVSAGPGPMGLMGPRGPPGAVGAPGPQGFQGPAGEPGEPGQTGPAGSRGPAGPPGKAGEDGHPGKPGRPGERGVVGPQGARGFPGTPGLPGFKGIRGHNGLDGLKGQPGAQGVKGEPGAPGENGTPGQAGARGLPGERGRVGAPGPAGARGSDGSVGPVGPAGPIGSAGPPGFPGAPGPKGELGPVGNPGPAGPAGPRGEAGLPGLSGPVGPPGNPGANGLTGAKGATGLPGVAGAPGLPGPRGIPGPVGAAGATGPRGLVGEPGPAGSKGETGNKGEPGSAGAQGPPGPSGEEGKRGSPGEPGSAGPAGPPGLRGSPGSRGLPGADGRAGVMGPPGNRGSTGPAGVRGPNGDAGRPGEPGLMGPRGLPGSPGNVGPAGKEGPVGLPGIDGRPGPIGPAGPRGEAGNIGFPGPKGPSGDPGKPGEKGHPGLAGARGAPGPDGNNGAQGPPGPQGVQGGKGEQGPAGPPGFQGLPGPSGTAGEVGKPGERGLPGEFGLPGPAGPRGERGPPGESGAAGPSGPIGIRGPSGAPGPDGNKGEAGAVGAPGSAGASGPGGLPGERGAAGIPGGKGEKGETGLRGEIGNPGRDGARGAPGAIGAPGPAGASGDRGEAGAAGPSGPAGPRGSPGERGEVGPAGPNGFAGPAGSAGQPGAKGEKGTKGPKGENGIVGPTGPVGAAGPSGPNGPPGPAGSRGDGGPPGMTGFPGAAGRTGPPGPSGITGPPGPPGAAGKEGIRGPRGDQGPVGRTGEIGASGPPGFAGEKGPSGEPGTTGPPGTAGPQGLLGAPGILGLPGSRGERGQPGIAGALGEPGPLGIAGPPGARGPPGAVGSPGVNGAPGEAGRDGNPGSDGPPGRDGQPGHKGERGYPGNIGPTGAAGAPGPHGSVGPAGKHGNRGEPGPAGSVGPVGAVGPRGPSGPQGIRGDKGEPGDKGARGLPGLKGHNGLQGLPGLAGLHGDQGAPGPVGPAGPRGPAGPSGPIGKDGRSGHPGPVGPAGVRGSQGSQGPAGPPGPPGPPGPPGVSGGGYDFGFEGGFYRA

| Binder | % bound [1] [%] | % bound [2] [%] |
| --- | --- | --- |
| {Gd^T″}-GK([Gly-Gd^T″])WHCTTK(Gd^T″)FPHHYCLY[Bip] (disulfide 5-14; not fully specified (C-terminus), also called Comp ID No:800) [Compound ID 800] | 85 | 88 |
| {Gd^T(3)}-GK([Gly-Gd^T(3)])WHCTTYFPHHYCLY[Bip] (disulfide 5-14) [Compound ID 950] | 78 | 79 |
| {Gd^T″}-GK([Gly-Gd^T″])WHCTTYFPHYYCLYG (disulfide 5-14 (inferred)) [Compound ID 947] | 64 | 57 |
| {Gd^T″}-GK([Gly-Gd^T″])WHCYTYFPHHYCVYG-{NH(CH2)6NH2-Gd^T″} (disulfide 5-14 (inferred)) [Compound ID 999] | 65 | 66 |
| {Gd^T″}-GK([Gly-Gd^T″])WHCTTYFPHH[Tyr(3-Cl)]CLYG (disulfide 5-14 (inferred)) [Compound ID 952] | 52 | 72 |
| {Gd^T″}-GQWHCYTLFPHHYCLYG (disulfide 5-14 (inferred)) [Compound ID 959] | 58 | 68 |
| {Gd^T″}-GQWK(Gd^T″)CTTRFPHHYCLYG (disulfide 5-14 (inferred)) [Compound ID 956] | 39 | 15 |
| {Gd^T″}-GK([Gly-Gd^T″])WHCTTYFPTHYCLYG (disulfide 5-14 (inferred)) [Compound ID 962] | 20 | 10 |
| {Gd^T″}-GK([Gly-Gd^T″])WHCTTYFPHHYCLYY (disulfide 5-14 (inferred)) [Compound ID 949] | 72 | 79 |
| {Gd^T″}-GK([Gly-Gd^T″])WHCTTYFPHHYCL[Phe(4-NH2)]G (disulfide 5-14 (inferred); not fully specified (C-terminus)) [Compound ID 970] | 53 | 54 |
| {Gd^T″}-GK([Gly-Gd^T″])WHCYTYFPHHYCVYG-{1,4 AMB(Gd^T)} (disulfide 5-14 (inferred); reading uncertain) [Compound ID 1000] | 75 | 68 |
| {Gd^T″}-GQWHCTTRFPK(Gd^T″)HYCLYG (disulfide 5-14 (inferred)) [Compound ID 958] | 45 | 33 |
| {Gd^T″}-GK([Gly-Gd^T″])WHCTTYFPHH[Dmt]CLYG (disulfide 5-14 (inferred)) [Compound ID 953] | 50 | 50 |
| {Gd^T″}-GK([Gly-Gd^T″])WHCTTYFPHH[Phe(4-NH2)]CLYG (disulfide 5-14 (inferred); not fully specified (C-terminus)) [Compound ID 972] | 3 | 0 |
| {Gd^T″}-GK([Gly-Gd^T″])WHCTTYFPHWYCLYG (disulfide 5-14 (inferred)) [Compound ID 948] | 25 | 17 |
| {Gd^T″}-GK([Gly-Gd^T″])WHCTTYFPHHYCL[Phe(4-NH2)](Gd^T″)G (disulfide 5-14 (inferred); not fully specified (C-terminus)) [Compound ID 971] | 21 | 25 |
| {Gd^T″}-GQWHCTTRFPHHYCLYG (disulfide 5-14 (inferred); not fully specified (C-terminus)) [Compound ID 954] | 31 | 22 |
| {Gd^T″}-GK([Gly-Gd^T″])WYCTTYFPHHYCLYG (disulfide 5-14 (inferred); not fully specified (C-terminus)) [Compound ID 990] | 59 | 62 |
| {Gd^T″}-GK([Gly-Gd^T″])WHCTTYFPHHVCLYG (disulfide 5-14 (inferred)) [Compound ID 965] | 26 | 11 |
| {Gd^T″}-GK([Gly-Gd^T″])WHCYTYFPYHYCVYG (disulfide 5-14 (inferred)) [Compound ID 963] | 82 | 91 |
| {Gd^T″}-GK([Gly-Gd^T″])WHCYTYFPYHYCLYG (disulfide 5-14 (inferred)) [Compound ID 964] | 88 | 86 |
| {Gd^T″}-GK([Gly-Gd^T″])WHCYTYFPHHYCVYG-{AEEA-Gd^T″} (disulfide 5-14 (inferred)) [Compound ID 998] | 71 | 75 |
| {Gd^D}-K(Gd^D)K(Gd^D)WHCYTYFPHHYCVYG (disulfide 5-14 (inferred)) [Compound ID 1014] | 72 | 61 |
| {Gd^T}-GQWTCSGDEYTWHCAYE (disulfide 5-14 (inferred); not fully specified (C-terminus); reading uncertain) [Compound ID 839] | 30 | 11 |
| GQWTCSGDAYTWHCNYE (disulfide 5-14 (inferred); not fully specified (N-terminus, C-terminus)) [Compound ID 838] | 70 | 61 |

More lines, now with the values ahead:

| % bound [1] [%] | % bound [2] [%] | Binder |
| --- | --- | --- |
| 53 | 55 | {Gd^T(3)}-K(Gd^T(3))K(Gd^T(3))WHCTTK(Gd^T(3))FPHHYCLY[Bip] (disulfide 5-14 (inferred)) [Compound ID 997] |
| 87 | 86 | {Gd^T″}-GK([Gly-Gd^T″])WHCYTK(Gd^T″)FPHHYCVYY (disulfide 5-14 (inferred); not fully specified (C-terminus)) [Compound ID 979] |
| 94 | 93 | {Gd^T″}-GK([Gly-Gd^T″])WHCYTK(Gd^T″)FPYHYCVYY (disulfide 5-14 (inferred)) [Compound ID 1011] |
| 23 | 11 | {Gd^T″}-GK([Gly-Gd^T″])WHCYK(Gd^T″)YFPHHYCLYG (disulfide 5-14 (inferred); not fully specified (C-terminus)) [Compound ID 991] |
| 85 | 80 | {Gd^T″}-GK([Gly-Gd^T″])WHCTTK(Gd^T″)FPHHYCLYY (disulfide 5-14 (inferred); not fully specified (C-terminus)) [Compound ID 980] |
| 64 | 66 | {Gd^T″}-GK([Gly-Gd^T″])WHCYTK(Gd^T″)FPHHYCVYG (disulfide 5-14 (inferred); not fully specified (C-terminus)) [Compound ID 978] |
| 42 | 39 | {Gd^T″}-GQWHCK(Gd^T″)TRFPHHYCLYG (disulfide 5-14 (inferred)) [Compound ID 957] |
| 85 | 92 | {Gd^T″}-GK([Gly-Gd^T″])WHC[Tyr(3-I)]TYFPHHYCLYG (disulfide 5-14 (inferred); not fully specified (C-terminus)) [Compound ID 973] |
| 81 | 88 | {Gd^T″}-GK([Gly-Gd^T″])WHCYTK(Gd^T″)FPHHYCK(Gd^T″)YY (disulfide 5-14 (inferred)) [Compound ID 1013] |
| 60 | 29 | {Gd^G}-GQWTCSGDAYTWHCAYE (disulfide 5-14 (inferred); not fully specified (C-terminus); reading uncertain) [Compound ID 820] |
| 51 | 28 | {Gd^T}-GQWTCSGDEYTWHCNYA (disulfide 5-14 (inferred); not fully specified (C-terminus); reading uncertain) [Compound ID 841] |
| 26 | 11 | {Gd^T″}-GAWTCSGDEYTWHCNYE (disulfide 5-14 (inferred); not fully specified (C-terminus)) [Compound ID 830] |
